Assay results as given in US20250090663A1 (published 2025).

T1: CD70 (antigen of the Carterra KD analysis) (UniProt P32970 39-193)
T1 chain: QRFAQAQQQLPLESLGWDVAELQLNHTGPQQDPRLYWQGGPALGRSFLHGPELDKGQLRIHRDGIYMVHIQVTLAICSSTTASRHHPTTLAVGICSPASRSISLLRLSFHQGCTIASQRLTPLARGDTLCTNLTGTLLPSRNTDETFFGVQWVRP


Key:
Assay in all cases: SPR (Carterra); apparent Kd
[1] = molecular target: T1, CD70 (antigen of the Carterra KD …)
[2] = molecular target: Positive Control (8G1)
[3] = molecular target: Positive Control (1C8)
[4] = molecular target: Positive Control (27B3)

Row | Kd [1] [nM] | Kd [2] [nM] | Kd [3] [nM] | Kd [4] [nM] | Binder
1 | 2.73 | – | – | – | H1-Fc (anti-CD70 VHH-Fc fusion polypeptide) (Fc fusion) QVQLQESGGGLVQAGGSLRLSCAAPRSIFSINAMGWYRQAPGKQRELVAAITSGGSPTYADSVKGRFTISRDNAKNTVYLQMNSLKAEDTAVYYCATGPYGLDNALDAWGQGTQVTVSS
2 | 23.4 | – | – | – | C1-Fc (anti-CD70 VHH-Fc fusion polypeptide) (Fc fusion) QVQLQESGGGLVQTGGSLRLACTASGFTFDDYAIAWFRQAPGKEREFVAAISWSGGTTHYADSVKGRFTISRDNAKNTLYLQMSSLKPEDTAVYFCAKSLRSSPSSRWFGSRGQGTQVTVSS
3 | – | 2.19 | 0.652 | 0.634 | CD70 (ligand) QRFAQAQQQLPLESLGWDVAELQLNHTGPQQDPRLYWQGGPALGRSFLHGPELDKGQLRIHRDGIYMVHIQVTLAICSSTTASRHHPTTLAVGICSPASRSISLLRLSFHQGCTIASQRLTPLARGDTLCTNLTGTLLPSRNTDETFFGVQWVRP
